Where two headings read alike, the source gives them in different places.
T1: FcgRIa (human, UniProt P12314)
T1 chain: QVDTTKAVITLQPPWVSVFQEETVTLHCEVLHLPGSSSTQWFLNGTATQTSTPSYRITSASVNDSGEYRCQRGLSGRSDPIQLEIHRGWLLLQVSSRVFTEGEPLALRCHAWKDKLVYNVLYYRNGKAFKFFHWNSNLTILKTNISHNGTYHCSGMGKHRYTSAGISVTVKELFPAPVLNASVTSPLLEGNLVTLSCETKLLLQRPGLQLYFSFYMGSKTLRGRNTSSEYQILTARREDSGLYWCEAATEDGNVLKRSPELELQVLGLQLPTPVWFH

T2: FcgRIIaR (human, UniProt P12318)
T2 chain: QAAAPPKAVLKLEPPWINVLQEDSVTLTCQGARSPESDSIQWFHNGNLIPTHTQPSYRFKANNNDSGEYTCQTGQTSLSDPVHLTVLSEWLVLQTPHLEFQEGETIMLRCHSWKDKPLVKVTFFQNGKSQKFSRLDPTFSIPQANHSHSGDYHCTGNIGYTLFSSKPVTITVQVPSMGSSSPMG

T3: FcgRIIb (human, UniProt P31994)
T3 chain: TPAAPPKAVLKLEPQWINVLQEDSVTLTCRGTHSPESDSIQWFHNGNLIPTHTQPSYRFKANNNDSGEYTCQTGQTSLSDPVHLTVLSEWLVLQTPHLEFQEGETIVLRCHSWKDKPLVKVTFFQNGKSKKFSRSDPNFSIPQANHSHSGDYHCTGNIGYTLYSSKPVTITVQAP


What was measured:
Assay in all cases: SPR
[1] = molecular target: T1, FcgRIa
[2] = molecular target: T2, FcgRIIaR
[3] = molecular target: T3, FcgRIIb
[4] = molecular target: T1, FcgRIa

Binder	Kd [1]	Kd [2]	Kd [3]	Kd [4]
IL6R-BP225/IL6R-L (antibody) chain 1: QVQLQESGPGLVKPSETLSLTCAVSGHSISHDHAWSWVRQPPGEGLEWIGFISYSGITNYNPSLQGRVTISRDNSKNTLYLQMNSLRAEDTAVYYCARSLARTTAMDYWGEGTLVTVSSASTKGPSVFPLAPSSKSTSGGTAALGCLVKDYFPEPVTVSWNSGALTSGVHTFPAVLQSSGLYSLSSVVTVPSSSLGTQTYICNVNHKPSNTKVDKKVEPKSCDKTHTCPPCPAPEYLGDDSVFLFPPKPKDTLMISRTPEVTCVVVDVSHEDPEVKFNWYVDGVEVHNAKTKPREEQYNSTYRVVSVLTVLHQDWLNGKEYKCKVSNDALPRPIEKTISKAKGQPREPQVYTLPPSRDELTKNQVSLTCLVKGFYPSDIAVEWESNGQPENNYKTTPPVLDSDGSFFLYSKLTVDKSRWQQGNVFSCSVMHEALHNHYTQESLSLSP chain 2: not shown				65 nM
IL6R-BP220/IL6R-L (antibody) chain 1: QVQLQESGPGLVKPSETLSLTCAVSGHSISHDHAWSWVRQPPGEGLEWIGFISYSGITNYNPSLQGRVTISRDNSKNTLYLQMNSLRAEDTAVYYCARSLARTTAMDYWGEGTLVTVSSASTKGPSVFPLAPSSKSTSGGTAALGCLVKDYFPEPVTVSWNSGALTSGVHTFPAVLQSSGLYSLSSVVTVPSSSLGTQTYICNVNHKPSNTKVDKKVEPKSCDKTHTCPPCPAPDLLGDDSVFLFPPKPKDTLMISRTPEVTCVVVDVSDEDGEVKFNWYVDGVEVHNAKTKPREEQDNSTYRVVSVLTVLHQDWLNGKEYKCKVSNKALPKPIEKTISKAKGQPREPQVYTLPPSRDELTKNQVSLTCLVKGFYPSDIAVEWESNGQPENNYKTTPPVLDSDGSFFLYSKLTVDKSRWQQGNVFSCSVMHEALHNHYTQESLSLSP chain 2: not shown				20 nM
IL6R-AP029/IL6R-BP409/IL6R-L (antibody) chain 1: QVQLQESGPGLVKPSETLSLTCAVSGHSISHDHAWSWVRQPPGEGLEWIGFISYSGITNYNPSLQGRVTISRDNSKNTLYLQMNSLRAEDTAVYYCARSLARTTAMDYWGEGTLVTVSSASTKGPSVFPLAPSSKSTSGGTAALGCLVKDYFPEPVTVSWNSGALTSGVHTFPAVLQSSGLYSLSSVVTVPSSSLGTQTYICNVNHKPSNTKVDKKVEPKSCDKTHTCPPCPAPDLLGDDSVFLFPPKPKDTLMISRTPEVTCVVVDVSEEDGEVKFNWYVDGVEVHNAKTKPREEQDNSTYRVVSVLTVLHQDWLNGKEYKCKVSNKALPRPIEKTISKAKGQPREPQVYTLPPSRKELTKNQVSLTCLVKGFYPSDIAVEWESNGQPENNYKTTPPVLDSDGSFFLYSKLTVDKSRWQQGNVFSCSVMHEALHNRYTQKSLSLSP chain 2: QVQLQESGPGLVKPSETLSLTCAVSGHSISHDHAWSWVRQPPGEGLEWIGFISYSGITNYNPSLQGRVTISRDNSKNTLYLQMNSLRAEDTAVYYCARSLARTTAMDYWGEGTLVTVSSASTKGPSVFPLAPSSKSTSGGTAALGCLVKDYFPEPVTVSWNSGALTSGVHTFPAVLQSSGLYSLSSVVTVPSSSLGTQTYICNVNHKPSNTKVDKKVEPKSCDKTHTCPPCPAPDLEGDDSVFLFPPKPKDTLMISRTPEVTCVVVDVSEEDGEVKFNWYVDGVEVHNAKTKPREEQDNSTYRVVSVLTVLHQDWLNGKEYKCKVSNKALPRPIEKTISKAKGQPREPQVYTLPPSRDELTKNQVSLTCLVKGFYPSDIAVEWESNGQPENNYKTTPPVLDSDGSFFLYSKLTVDKSRWQQGNVFSCSVMHEALHNHYTQESLSLSP chain 3: not shown	19 nM	630 nM	15 nM	
IL6R-AP029/IL6R-BP410/IL6R-L (antibody) chain 1: QVQLQESGPGLVKPSETLSLTCAVSGHSISHDHAWSWVRQPPGEGLEWIGFISYSGITNYNPSLQGRVTISRDNSKNTLYLQMNSLRAEDTAVYYCARSLARTTAMDYWGEGTLVTVSSASTKGPSVFPLAPSSKSTSGGTAALGCLVKDYFPEPVTVSWNSGALTSGVHTFPAVLQSSGLYSLSSVVTVPSSSLGTQTYICNVNHKPSNTKVDKKVEPKSCDKTHTCPPCPAPDLLGDDSVFLFPPKPKDTLMISRTPEVTCVVVDVSEEDGEVKFNWYVDGVEVHNAKTKPREEQDNSTYRVVSVLTVLHQDWLNGKEYKCKVSNKALPRPIEKTISKAKGQPREPQVYTLPPSRKELTKNQVSLTCLVKGFYPSDIAVEWESNGQPENNYKTTPPVLDSDGSFFLYSKLTVDKSRWQQGNVFSCSVMHEALHNRYTQKSLSLSP chain 2: QVQLQESGPGLVKPSETLSLTCAVSGHSISHDHAWSWVRQPPGEGLEWIGFISYSGITNYNPSLQGRVTISRDNSKNTLYLQMNSLRAEDTAVYYCARSLARTTAMDYWGEGTLVTVSSASTKGPSVFPLAPSSKSTSGGTAALGCLVKDYFPEPVTVSWNSGALTSGVHTFPAVLQSSGLYSLSSVVTVPSSSLGTQTYICNVNHKPSNTKVDKKVEPKSCDKTHTCPPCPAPDLTGDDSVFLFPPKPKDTLMISRTPEVTCVVVDVSEEDGEVKFNWYVDGVEVHNAKTKPREEQDNSTYRVVSVLTVLHQDWLNGKEYKCKVSNKALPRPIEKTISKAKGQPREPQVYTLPPSRDELTKNQVSLTCLVKGFYPSDIAVEWESNGQPENNYKTTPPVLDSDGSFFLYSKLTVDKSRWQQGNVFSCSVMHEALHNHYTQESLSLSP chain 3: not shown	17 nM	660 nM	22 nM	
IL6R-AP029/IL6R-BP407/IL6R-L (antibody) chain 1: QVQLQESGPGLVKPSETLSLTCAVSGHSISHDHAWSWVRQPPGEGLEWIGFISYSGITNYNPSLQGRVTISRDNSKNTLYLQMNSLRAEDTAVYYCARSLARTTAMDYWGEGTLVTVSSASTKGPSVFPLAPSSKSTSGGTAALGCLVKDYFPEPVTVSWNSGALTSGVHTFPAVLQSSGLYSLSSVVTVPSSSLGTQTYICNVNHKPSNTKVDKKVEPKSCDKTHTCPPCPAPDLLGDDSVFLFPPKPKDTLMISRTPEVTCVVVDVSEEDGEVKFNWYVDGVEVHNAKTKPREEQDNSTYRVVSVLTVLHQDWLNGKEYKCKVSNKALPRPIEKTISKAKGQPREPQVYTLPPSRKELTKNQVSLTCLVKGFYPSDIAVEWESNGQPENNYKTTPPVLDSDGSFFLYSKLTVDKSRWQQGNVFSCSVMHEALHNRYTQKSLSLSP chain 2: QVQLQESGPGLVKPSETLSLTCAVSGHSISHDHAWSWVRQPPGEGLEWIGFISYSGITNYNPSLQGRVTISRDNSKNTLYLQMNSLRAEDTAVYYCARSLARTTAMDYWGEGTLVTVSSASTKGPSVFPLAPSSKSTSGGTAALGCLVKDYFPEPVTVSWNSGALTSGVHTFPAVLQSSGLYSLSSVVTVPSSSLGTQTYICNVNHKPSNTKVDKKVEPKSCDKTHTCPPCPAPDLDGDDSVFLFPPKPKDTLMISRTPEVTCVVVDVSEEDGEVKFNWYVDGVEVHNAKTKPREEQDNSTYRVVSVLTVLHQDWLNGKEYKCKVSNKALPRPIEKTISKAKGQPREPQVYTLPPSRDELTKNQVSLTCLVKGFYPSDIAVEWESNGQPENNYKTTPPVLDSDGSFFLYSKLTVDKSRWQQGNVFSCSVMHEALHNHYTQESLSLSP chain 3: not shown	13 nM	630 nM	19 nM	

Continued, values first:

Kd [1]	Kd [2]	Kd [3]	Kd [4]	Binder
140 nM	34000 nM	720 nM		IL6R-BP408/IL6R-L (antibody) chain 1: QVQLQESGPGLVKPSETLSLTCAVSGHSISHDHAWSWVRQPPGEGLEWIGFISYSGITNYNPSLQGRVTISRDNSKNTLYLQMNSLRAEDTAVYYCARSLARTTAMDYWGEGTLVTVSSASTKGPSVFPLAPSSKSTSGGTAALGCLVKDYFPEPVTVSWNSGALTSGVHTFPAVLQSSGLYSLSSVVTVPSSSLGTQTYICNVNHKPSNTKVDKKVEPKSCDKTHTCPPCPAPDLQGDDSVFLFPPKPKDTLMISRTPEVTCVVVDVSEEDGEVKFNWYVDGVEVHNAKTKPREEQDNSTYRVVSVLTVLHQDWLNGKEYKCKVSNKALPRPIEKTISKAKGQPREPQVYTLPPSRDELTKNQVSLTCLVKGFYPSDIAVEWESNGQPENNYKTTPPVLDSDGSFFLYSKLTVDKSRWQQGNVFSCSVMHEALHNHYTQESLSLSP chain 2: not shown
			7 nM	IL6R-BP249/IL6R-L (antibody) chain 1: QVQLQESGPGLVKPSETLSLTCAVSGHSISHDHAWSWVRQPPGEGLEWIGFISYSGITNYNPSLQGRVTISRDNSKNTLYLQMNSLRAEDTAVYYCARSLARTTAMDYWGEGTLVTVSSASTKGPSVFPLAPSSKSTSGGTAALGCLVKDYFPEPVTVSWNSGALTSGVHTFPAVLQSSGLYSLSSVVTVPSSSLGTQTYICNVNHKPSNTKVDKKVEPKSCDKTHTCPPCPAPDYLGDDSVFLFPPKPKDTLMISRTPEVTCVVVDVSDEDGEVKFNWYVDGVEVHNAKTKPREEQDNSTYRVVSVLTVLHQDWLNGKEYKCKVSNKALPRPIEKTISKAKGQPREPQVYTLPPSRDELTKNQVSLTCLVKGFYPSDIAVEWESNGQPENNYKTTPPVLDSDGSFFLYSKLTVDKSRWQQGNVFSCSVMHEALHNHYTQESLSLSP chain 2: not shown
10 nM	360 nM	11 nM		IL6R-BP404/IL6R-L (antibody) chain 1: QVQLQESGPGLVKPSETLSLTCAVSGHSISHDHAWSWVRQPPGEGLEWIGFISYSGITNYNPSLQGRVTISRDNSKNTLYLQMNSLRAEDTAVYYCARSLARTTAMDYWGEGTLVTVSSASTKGPSVFPLAPSSKSTSGGTAALGCLVKDYFPEPVTVSWNSGALTSGVHTFPAVLQSSGLYSLSSVVTVPSSSLGTQTYICNVNHKPSNTKVDKKVEPKSCDKTHTCPPCPAPDYLGDDSVFLFPPKPKDTLMISRTPEVTCVVVDVSEEDGEVKFNWYVDGVEVHNAKTKPREEQDNSTYRVVSVLTVLHQDWLNGKEYKCKVSNKALPRPIEKTISKAKGQPREPQVYTLPPSRDELTKNQVSLTCLVKGFYPSDIAVEWESNGQPENNYKTTPPVLDSDGSFFLYSKLTVDKSRWQQGNVFSCSVMHEALHNHYTQESLSLSP chain 2: not shown
